# From PMC7801473 (2021)
# B1: NLRP1^CARD (M2H fusion) [human] / ASC^CARD (M2H fusion) [human] (parent complex)
# chain 1: DAPQLLHFVDQYREQLIARVTSVEVVLDKLHGQVLSQEQYERVLAENTRPSQMRKLFSLSQSWDRKCKDGLYQALKETHPHLIMELWEKG
# chain 2: AAKPGLHFIDQHRAALIARVTNVEWLLDALYGKVLTDEQYQAVRAEPTNPSKMRKLFSFTPAWNWTCKDLLLQALRESQSYLVEDLERS
# B2: ASC^CARD (M2H fusion) [human] / NLRP1^CARD (M2H fusion) [human] (parent complex)
# chain 1: B1 chain 2
# chain 2: B1 chain 1
# Variants of: B1
# Test: M2H (mammalian two-hybrid, luciferase); HEK293T cells; GAL(DBD)-ASC^CARD with VP16-NLRP1^CARD; luciferase normalized to Renilla; parent: 3; read off a plot
row,Variant,response
1,chain 1 DAPQLLHFVDQYREQLIARVTSVEVVLDKLHGQVLSQEQYERVLAENTRPSQMRKLFSLSQSWDRKCKDGLYQALKETHPELIMELWEKG [chain 1 H81E],~0.98 fold of negative control
2,chain 1 DAPQLLHFVDQYREQLIAAVTSVEVVLDKLHGQVLSQEQYERVLAENTRPSQMRKLFSLSQSWDRKCKDGLYQALKETHPHLIMELWEKG [chain 1 R19A],~1.1 fold of negative control
3,chain 1 DAPQLLHFVDQYREQLIARVTSVEVVLDKLHGQVLSQEQYERVLAENTRPSQMAKLFSLSQSWDRKCKDGLYQALKETHPHLIMELWEKG [chain 1 R54A],~1.5 fold of negative control

# Other lines, results leading:
row,response,Variant
1,~0.77 fold of negative control,"chain 1 DAPQLLHFVDQYREQLIARVTSVRVVLKKLHGQVLSQEQYERVLAENTRPSQMRKLFSLSQSWDRKCKDGLYQALKETHPHLIMELWEKG [chain 1 E24R, chain 1 D28K]"
2,~1.8 fold of negative control,"chain 1 DAPQLLHFVDQYREQLIAAVTSVEVVLDKLHGQVLSQEQYERVLAENTAPSQMRKLFSLSQSWDRKCKDGLYQALKETHPHLIMELWEKG [chain 1 R19A, chain 1 R49A]"
3,~1.7 fold of negative control,"chain 1 DAPQLLHFVDQYREQLIARVTSVEVVLDKLHGQVLSAEQYRRVLAENTRPSQMRKLFSLSQSWDRKCKDGLYQALKETHPHLIMELWEKG [chain 1 Q37A, chain 1 E41R]"
4,~0.97 fold of negative control,"chain 1 DAPQLLHFVDQYREQLIARVTSVEVVLDKLHGQVLSQEQYERVLAENTRPSQMRKLFSLSQSGKRKCKDGLYQALKETHPHLIMELWEKG [chain 1 W63G, chain 1 D64K]"

# Variants of: B2
# Test: M2H (mammalian two-hybrid, luciferase); HEK293T cells; GAL(DBD)-NLRP1^CARD with VP16-ASC^CARD; luciferase normalized to Renilla; parent: 2.1; read off a plot
row,Variant,response
1,chain 1 AAKPGLHFIDQHDAALIARVTNVEWLLDALYGKVLTDEQYQAVRAEPTNPSKMRKLFSFTPAWNWTCKDLLLQALRESQSYLVEDLERS [chain 1 R13D],~0.57 fold of negative control
2,chain 1 AAKPGLHFIDQHRAALIARVTNVEWLLKALYGKVLTDEQYQAVRAEPTNPSKMRKLFSFTPAWNWTCKDLLLQALRESQSYLVEDLERS [chain 1 D28K],~0.78 fold of negative control
3,"chain 1 AAKPGLHFIDQHRAALIARVTNVEWLLDALYGKVLTAAQYQAVRAEPTNPSKMRKLFSFTPAWNWTCKDLLLQALRESQSYLVEDLERS [chain 1 D37A, chain 1 E38A]",~1.4 fold of negative control
4,"chain 1 AAKPGLHFIDQHRAALIARVTNVEWLLDALYGKVLTDEQYQAVRAEPTNPSKMRKLFSFTPAGAWTCKDLLLQALRESQSYLVEDLERS [chain 1 W63G, chain 1 N64A]",~1.2 fold of negative control

# The remaining lines, values ahead:
row,response,Variant
1,~0.87 fold of negative control,chain 1 AAKPGLHFIDQHRAALIARVTNVEWLLDALYGKVLTDEQYQAVRAEPTNPSKMEKLFSFTPAWNWTCKDLLLQALRESQSYLVEDLERS [chain 1 R54E]
2,~1.1 fold of negative control,"chain 1 AAKPGLHFIDQHRAALIAAVANVEWLLDALYGKVLTDEQYQAVRAEPTNPSKMRKLFSFTPAWNWTCKDLLLQALRESQSYLVEDLERS [chain 1 R19A, chain 1 T21A]"
3,~0.8 fold of negative control,"chain 1 AAKPGLHFIDQHRAALIARVTAVRWLLDALYGKVLTDEQYQAVRAEPTNPSKMRKLFSFTPAWNWTCKDLLLQALRESQSYLVEDLERS [chain 1 N22A, chain 1 E24R]"
